Measurements: patent publication US20090238821A1
pKd: −log10 of the molar value.

How the values were obtained:
human Aβ peptide (human) [1] = target: human Aβ peptide (human) (UniProt P05067); test: BIAcore 2000, 266 against 4G8
Amyloid-beta 1-40 = Amyloid-beta 1-40 (UniProt P05067); test: BIAcore 2000, antibody captured by rabbit anti-mouse, peptide flowed
Amyloid-beta 1-42 = Amyloid-beta 1-42 (UniProt P05067); test: as above
human Aβ peptide (human) [2] = target: human Aβ peptide (human) (UniProt P05067); test: plasma of APP V717F mice given 200 or 600 µg Mab 266 i.v., RIA (in vivo)
human Aβ peptide (human) [3] = target: human Aβ peptide (human) (UniProt P05067); test: dialysis chamber, 1 mL human CSF against 1 µg Mab 266, 25 kD cutoff, 3 hours, ELISA
human Aβ peptide (human) [4] = target: human Aβ peptide (human) (UniProt P05067); test: dialysis chamber, 1 mL human CSF against 1 µg Mab 266, 100 kD cutoff, 3 hours, ELISA
[5] = target: β-amyloid peptide (1-42) conjugated to BSA (UniProt P05067); test: competitive ELISA on Aβ1-42-BSA, competitor of biotinylated Mu266 (0.3 µg/ml), first set
[6] = target: β-amyloid peptide (1-42) conjugated to BSA (UniProt P05067); test: competitive ELISA on Aβ1-42-BSA, competitor of biotinylated Mu266 (0.3 µg/ml), second set
human Aβ peptide (human) [7] = target: human Aβ peptide (human) (UniProt P05067); test: plasma of APP V717F mice given 1 mg Mab 266 i.v., non-denaturing gel, blot with biotin-3D6 and 125I-streptavidin against Aβ40/266 standards (in vivo)

Substance | fold difference in affinity between 266 and 4G8 (human Aβ peptide (human) [1]) | pKd (Amyloid-beta 1-40) | pKd (Amyloid-beta 1-42) | concentration of Aβ bound to Mab 266 in plasma (human Aβ peptide (human) [2]) | percent of Aβ peptide sequestered in the bottom chamber (human Aβ peptide (human) [3]) | percent of Aβ peptide drawn across the membrane (human Aβ peptide (human) [4]) | IC50 [5] | IC50 [6] | amount of Aβ peptide bound to Mab 266 in plasma (human Aβ peptide (human) [7])
mouse monoclonal antibody 266 | 6000 fold | 5.40 | 5.40 | > 100 ng/mL | 50% | 100% | 4.7 µg/mL | 3.87 µg/mL | 100 ng/mL
Mab 4G8 (antibody) | – | 7.64 | 7.62 | – | – | – | – | – | –
